This note sets out measurements from the supplement of paper PMC7125110.

Sequences and labels used below:
B1: glmS ribozyme (parent)
chain: AUAAAAGCGCCAGAACUACAGAAAUGUAGUUGACGAGGAGGAGGUUUAUCGAAUUUUCGGCGGAUGCCUCCAAA

± gives the standard error. This sample holds only a part of the variants without activity. Where only a bound is given, the exact number is not on record here.

Common to all, as to conditions: with glucosamine-6-phosphate
Variants of B1 are the subject of series [1]. Kind of series: self-cleavage kobs at 40 uM GlcN6P; higher = faster cleavage; RNA array. The essentials: (§1)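 Glucosamine-6-phosphate in HEPES/KCl/Mg(OAc)2 buffer, at 40 μM to 10 mM, was flowed over barcoded ribozyme variants transcribed in situ by E. coli RNA polymerase on sequenced MiSeq chips. Tracking was through a hybridised Cy3 probe at 37 °C. kobs, kcat and KM came from exponential decay fits and weighted Michaelis–Menten fits of normalised per-tile medians.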

In series [2] the parent is B1. Kind of series: self-cleavage kobs at 160 uM GlcN6P; higher = faster cleavage; RNA array. A digest of the protocol:
as §1

In series [3] the parent is B1. Put plainly: self-cleavage kobs at 640 uM GlcN6P; higher = faster cleavage; RNA array. A digest of the protocol:
as §1

In series [4] the parent is B1. Kind of series: self-cleavage kobs at 2500 uM GlcN6P; higher = faster cleavage; RNA array. A digest of the protocol: as §1
Series [5] covers variants of B1. Put plainly: self-cleavage kobs at 10000 uM GlcN6P; higher = faster cleavage; RNA array. A digest of the protocol:
as §1

For the variant G9A A53U, the “self-cleavage kobs at 40 uM GlcN6P” value in series [1] is < 1e-05 s⁻¹. Also, in series [2], the “self-cleavage kobs at 160 uM GlcN6P” value is < 1e-05 s⁻¹. The “self-cleavage kobs at 640 uM GlcN6P” value in series [3] is < 1e-05 s⁻¹.

Turning to G7C U45G, in series [1], the “self-cleavage kobs at 40 uM GlcN6P” value was < 1e-05 s⁻¹. Further, in series [2], the “self-cleavage kobs at 160 uM GlcN6P” value is < 1e-05 s⁻¹. In addition, in series [3], the “self-cleavage kobs at 640 uM GlcN6P” value is < 1e-05 s⁻¹. Further, the “self-cleavage kobs at 2500 uM GlcN6P” value in series [4] is < 1e-05 s⁻¹. Also, the “self-cleavage kobs at 10000 uM GlcN6P” value in series [5] was < 1e-05 s⁻¹.

Turning to C34G A39U C70U, the “self-cleavage kobs at 40 uM GlcN6P” value in series [1] is < 1e-05 s⁻¹.

Consider C8A U45C, for which the “self-cleavage kobs at 40 uM GlcN6P” value in series [1] is < 1e-05 s⁻¹. Moreover, the “self-cleavage kobs at 640 uM GlcN6P” value in series [3] was < 1e-05 s⁻¹. For the same variant, the “self-cleavage kobs at 2500 uM GlcN6P” value in series [4] is < 1e-05 s⁻¹.

As to G7U C11U, the “self-cleavage kobs at 40 uM GlcN6P” value in series [1] is < 1e-05 s⁻¹. For the same variant, the “self-cleavage kobs at 160 uM GlcN6P” value in series [2] was < 1e-05 s⁻¹. Moreover, in series [3], the “self-cleavage kobs at 640 uM GlcN6P” value was < 1e-05 s⁻¹. Further, the “self-cleavage kobs at 2500 uM GlcN6P” value in series [4] was < 1e-05 s⁻¹. Besides, the “self-cleavage kobs at 10000 uM GlcN6P” value in series [5] was < 1e-05 s⁻¹.

In the case of G9U A36G, the “self-cleavage kobs at 40 uM GlcN6P” value in series [1] is < 1e-05 s⁻¹. Also, the “self-cleavage kobs at 2500 uM GlcN6P” value in series [4] was < 1e-05 s⁻¹. In addition, in series [5], the “self-cleavage kobs at 10000 uM GlcN6P” value was < 1e-05 s⁻¹.

Regarding G37U U65G G66U, the “self-cleavage kobs at 40 uM GlcN6P” value in series [1] was < 1e-05 s⁻¹.

Turning to G44U C68A, the “self-cleavage kobs at 40 uM GlcN6P” value in series [1] is < 1e-05 s⁻¹. For the same variant, in series [2], the “self-cleavage kobs at 160 uM GlcN6P” value is < 1e-05 s⁻¹. Also, in series [3], the “self-cleavage kobs at 640 uM GlcN6P” value was < 1e-05 s⁻¹. In addition, in series [5], the “self-cleavage kobs at 10000 uM GlcN6P” value is < 1e-05 s⁻¹.

For G13C U65G, the “self-cleavage kobs at 40 uM GlcN6P” value in series [1] was < 1e-05 s⁻¹. Also, the “self-cleavage kobs at 160 uM GlcN6P” value in series [2] was < 1e-05 s⁻¹. For the same variant, the “self-cleavage kobs at 640 uM GlcN6P” value in series [3] was < 1e-05 s⁻¹. Moreover, the “self-cleavage kobs at 2500 uM GlcN6P” value in series [4] is < 1e-05 s⁻¹.

Regarding G51C G66U, in series [1], the “self-cleavage kobs at 40 uM GlcN6P” value is < 1e-05 s⁻¹. For the same variant, the “self-cleavage kobs at 640 uM GlcN6P” value in series [3] was < 1e-05 s⁻¹. Besides, the “self-cleavage kobs at 2500 uM GlcN6P” value in series [4] is < 1e-05 s⁻¹. Further, the “self-cleavage kobs at 10000 uM GlcN6P” value in series [5] is < 1e-05 s⁻¹.

Consider G51C G66C, for which the “self-cleavage kobs at 40 uM GlcN6P” value in series [1] is < 1e-05 s⁻¹. The “self-cleavage kobs at 160 uM GlcN6P” value in series [2] is < 1e-05 s⁻¹. In addition, the “self-cleavage kobs at 640 uM GlcN6P” value in series [3] was < 1e-05 s⁻¹.

In the case of A6G C8U U57C C67U, the “self-cleavage kobs at 40 uM GlcN6P” value in series [1] is < 1e-05 s⁻¹. The “self-cleavage kobs at 10000 uM GlcN6P” value in series [5] is < 1e-05 s⁻¹.

As for C10G G32C A48U, in series [1], the “self-cleavage kobs at 40 uM GlcN6P” value is < 1e-05 s⁻¹. Moreover, the “self-cleavage kobs at 10000 uM GlcN6P” value in series [5] is < 1e-05 s⁻¹.

Consider G43C A64U, for which the “self-cleavage kobs at 40 uM GlcN6P” value in series [1] was < 1e-05 s⁻¹. In series [2], the “self-cleavage kobs at 160 uM GlcN6P” value was < 1e-05 s⁻¹. In addition, the “self-cleavage kobs at 2500 uM GlcN6P” value in series [4] is < 1e-05 s⁻¹. In series [5], the “self-cleavage kobs at 10000 uM GlcN6P” value was < 1e-05 s⁻¹.

For A15G A33U C71U, the “self-cleavage kobs at 40 uM GlcN6P” value in series [1] was < 1e-05 s⁻¹. Besides, in series [5], the “self-cleavage kobs at 10000 uM GlcN6P” value was determined as 5.87e-05 ± 1.3e-05 s⁻¹.

Take A53U G60C: in series [1], the “self-cleavage kobs at 40 uM GlcN6P” value was < 1e-05 s⁻¹. In addition, the “self-cleavage kobs at 2500 uM GlcN6P” value in series [4] was < 1e-05 s⁻¹. The “self-cleavage kobs at 10000 uM GlcN6P” value in series [5] is < 1e-05 s⁻¹.

As for A6G G13C U31G A39C U45G, in series [1], the “self-cleavage kobs at 40 uM GlcN6P” value was < 1e-05 s⁻¹. The “self-cleavage kobs at 10000 uM GlcN6P” value in series [5] is < 1e-05 s⁻¹.

Take C11A G29U C67G C68G: the “self-cleavage kobs at 40 uM GlcN6P” value in series [1] was found to be 3.88e-05 ± 1.7e-05 s⁻¹.

A14U C16U C70U: the “self-cleavage kobs at 40 uM GlcN6P” value in series [1] amounted to 0.000248 ± 7.9e-05 s⁻¹. Moreover, the “self-cleavage kobs at 2500 uM GlcN6P” value in series [4] was determined as 0.00092 ± 0.0002 s⁻¹. In series [5], the “self-cleavage kobs at 10000 uM GlcN6P” value stood at 0.00877 ± 0.0026 s⁻¹.

On to C34U G59C C71G, for which the “self-cleavage kobs at 40 uM GlcN6P” value in series [1] is < 1e-05 s⁻¹. The “self-cleavage kobs at 10000 uM GlcN6P” value in series [5] is < 1e-05 s⁻¹.

Take G7U G44U: the “self-cleavage kobs at 40 uM GlcN6P” value in series [1] was < 1e-05 s⁻¹. In series [2], the “self-cleavage kobs at 160 uM GlcN6P” value was < 1e-05 s⁻¹. The “self-cleavage kobs at 640 uM GlcN6P” value in series [3] was < 1e-05 s⁻¹. Further, the “self-cleavage kobs at 10000 uM GlcN6P” value in series [5] was < 1e-05 s⁻¹.

In the case of G37U G40U, in series [1], the “self-cleavage kobs at 40 uM GlcN6P” value was < 1e-05 s⁻¹. For the same variant, in series [2], the “self-cleavage kobs at 160 uM GlcN6P” value was < 1e-05 s⁻¹. Moreover, in series [3], the “self-cleavage kobs at 640 uM GlcN6P” value is < 1e-05 s⁻¹. Also, the “self-cleavage kobs at 2500 uM GlcN6P” value in series [4] was < 1e-05 s⁻¹. Also, the “self-cleavage kobs at 10000 uM GlcN6P” value in series [5] was < 1e-05 s⁻¹.
